Our source for the Kd values is PMC12132378 (bioRxiv, 2025).

The assay concerns the target Ub-Lys-TAMRA (UniProt P0CG48 1-76, Ub is isopeptide-linked to a TAMRA-labeled Lys-Gly dipeptide (modification at the Ub C-terminus)). The assay can be described thus: fluorescence polarisation.

B1: RNF114 (wild type, full length) (enzyme)
chain: MAAQQRDCGGAAQLAGPAAEADPLGRFTCPVCLEVYEKPVQVPCGHVFCSACLQECLKPKKPVCGVCRSALAPGVRAVELERQIESTETSCHGCRKNFFLSKIRSHVATCSKYQNYIMEGVKATIKDASLQPRNVPNRYTFPCPYCPEKNFDQEGLVEHCKLFHSTDTKSVVCPICASMPWGDPNYRSANFREHIQRRHRFSYDTFVDYDVDEEDMMNQVLQRSIIDQ
On to B1, for which the dissociation constant Kd is around 20 µM.
